# Laboratory results taken from the supplement of paper PMC11246515.
# ± gives the standard deviation of the averaged measurements.
# Experiment: total protein half-life in vivo (active degradation + dilution); higher = more stable protein
# [1] = E. coli NCM3722 delta-clpP delta-lon delta-hslV, growth: N-lim chemostat, doubling time 6 h
# [2] = E. coli NCM3722 delta-clpP, growth: N-lim chemostat, doubling time 6 h
# [3] = E. coli NCM3722 delta-hslV, growth: N-lim chemostat, doubling time 6 h
# [4] = E. coli NCM3722 delta-lon, growth: N-lim chemostat, doubling time 6 h
# [5] = E. coli NCM3722 delta-smpB, growth: N-lim chemostat, doubling time 6 h
# [6] = wild type E. coli NCM3722, growth: C-lim chemostat, doubling time 3 h
# [7] = wild type E. coli NCM3722, growth: C-lim chemostat, doubling time 6 h
# [8] = wild type E. coli NCM3722, growth: C-lim chemostat, doubling time 12 h
# [9] = wild type E. coli NCM3722, growth: N-lim chemostat, doubling time 6 h
# [10] = wild type E. coli NCM3722, growth: N-lim chemostat, doubling time 12 h
# [11] = wild type E. coli NCM3722, growth: P-lim chemostat, doubling time 12 h
# [12] = wild type E. coli NCM3722, growth: P-lim chemostat, doubling time 6 h
Sequence,total protein half-life in vivo [1] [h],total protein half-life in vivo [2] [h],total protein half-life in vivo [3] [h],total protein half-life in vivo [4] [h],total protein half-life in vivo [5] [h],total protein half-life in vivo [6] [h],total protein half-life in vivo [7] [h],total protein half-life in vivo [8] [h],total protein half-life in vivo [9] [h],total protein half-life in vivo [10] [h],total protein half-life in vivo [11] [h],total protein half-life in vivo [12] [h]
MNKIFSSHVMPFRALIDACWKEKYTAARFTRDLIAGITVGIIAIPLAMALAIGSGVAPQYGLYTAAVAGIVIALTGGSRFSVSGPTAAFVVILYPVSQQFGLAGLLVATLLSGIFLILMGLARFGRLIEYIPVSVTLGFTSGIGITIGTMQIKDFLGLQMAHVPEHYLQKVGALFMALPTINVGDAAIGIVTLGILVFWPRLGIRLPGHLPALLAGCAVMGIVNLLGGHVATIGSQFHYVLADGSQGNGIPQLLPQLVLPWDLPNSEFTLTWDSIRTLLPAAFSMAMLGAIESLLCAVVLDGMTGTKHKANSELVGQGLGNIIAPFFGGITATAAIARSAANVRAGATSPISAVIHSILVILALLVLAPLLSWLPLSAMAALLLMVAWNMSEAHKVVDLLRHAPKDDIIVMLLCMSLTVLFDMVIAISVGIVLASLLFMRRIARMTRLAPVVVDVPDDVLVLRVIGPLFFAAAEGLFTDLESRLEGKRIVILKWDAVPVLDAGGLDAFQRFVKRLPEGCELRVCNVEFQPLRTMARAGIQPIPGRLAFFPNRRAAMADL [P0AFR2],5.99 ± 0.062,6.21 ± 0.72,5.51,5.97 ± 0.73,5.82 ± 0.46,1.95,6.39 ± 0.93,> 16,6.43 ± 1.8,> 16,7.77,–
MKNIIRTPETHPLTWRLRDDKQPVWLDEYRSKNGYEGARKALTGLSPDEIVNQVKDAGLKGRGGAGFSTGLKWSLMPKDESMNIRYLLCNADEMEPGTYKDRLLMEQLPHLLVEGMLISAFALKAYRGYIFLRGEYIEAAVNLRRAIAEATEAGLLGKNIMGTGFDFELFVHTGAGRYICGEETALINSLEGRRANPRSKPPFPATSGAWGKPTCVNNVETLCNVPAILANGVEWYQNISKSKDAGTKLMGFSGRVKNPGLWELPFGTTAREILEDYAGGMRDGLKFKAWQPGGAGTDFLTEAHLDLPMEFESIGKAGSRLGTALAMAVDHEINMVSLVRNLEEFFARESCGWCTPCRDGLPWSVKILRALERGEGQPGDIETLEQLCRFLGPGKTFCAHAPGAVEPLQSAIKYFREEFEAGIKQPFSNTHLINGIQPNLLKERW,5.67 ± 0.18,5.27 ± 0.43,6.1 ± 0.97,5.74 ± 0.13,5.48 ± 0.17,2.73 ± 0.23,5.63 ± 0.092,9.99 ± 0.41,5.44 ± 0.24,9.884 ± 0.082,10.4 ± 0.9,5.251 ± 0.0079
MLWGFVFVSFISKELALGQSEYISWVKCTSWLSNFVNLRGLRQPDGRPLYEYHATNDEYTQLTQLLRAVGQSQSNICNRDFAACFVLFCSEWYRRDYERQCGWTWDPIYKKIGISFTATELGTIVPKGMEDYWLRPIRFYESERRNFLGTLFSEGGLPFRLLKESDSRFLAVFSRILGQYEQAKQSGFSALSLARAVIEKSALPTVFSEDTSVELISHMADNLNSLVLTHNLINHKEPVQQLEKVHPTWRSEFPIPLDDETGTHFLNGLLCAASVEAKPRLQKNKSTRCQFYWSEKHPDELRVIVSLPDEVSFPVTSEPSTTRFELAICEDGEEVSGLGPAYASLENRQATVRLRKSEVRFGRQNPSAGLSLVARAGGMIVGSIKLDDSEIAIGEVPLTFIVDADQWLLQGQASCSVRSSDVLIVLPRDNSNVAGFDGQSRAVNVLGLKALPVKGCQDVTVTANETYRIRTGREQISIGRFALNGKRASWVCHPDETFIGVPKVISTLPDIQSIDVTRYTC,–,–,–,–,–,–,–,–,5.44,–,–,–
MRIVTAAVMASTLAVSSLSHAAEVGSGDNWHPGEELTQRSTQSHMFDGISLTEHQRQQMRDLMQQARHEQPPVNVSELETMHRLVTAENFDENAVRAQAEKMANEQIARQVEMAKVRNQMYRLLTPEQQAVLNEKHQQRMEQLRDVTQWQKSSSLKLLSSSNSRSQ [P0AE85],2.56 ± 0.11,4.81,1.65,> 8,2.394 ± 0.017,–,2.391 ± 0.0025,–,–,3.54 ± 0.086,2.99,–
MKQPAPVYQRIAGHQWRHIWLSGDIHGCLEQLRRKLWHCRFDPWRDLLISVGDVIDRGPQSLRCLQLLEQHWVCAVRGNHEQMAMDALASQQMSLWLMNGGDWFIALADNQQKQAKTALEKCQHLPFILEVHSRTGKHVIAHADYPDDVYEWQKDVDLHQVLWSRSRLGERQKGQGITGADHFWFGHTPLRHRVDIGNLHYIDTGAVFGGELTLVQLQ,–,–,–,–,–,–,–,–,–,–,5.48,–
MLYDKSLERDNCGFGLIAHIEGEPSHKVVRTAIHALARMQHRGAILADGKTGDGCGLLLQKPDRFFRIVAQERGWRLAKNYAVGMLFLNKDPELAAAARRIVEEELQRETLSIVGWRDVPTNEGVLGEIALSSLPRIEQIFVNAPAGWRPRDMERRLFIARRRIEKRLEADKDFYVCSLSNLVNIYKGLCMPTDLPRFYLDLADLRLESAICLFHQRFSTNTVPRWPLAQPFRYLAHNGEINTITGNRQWARARTYKFQTPLIPDLHDAAPFVNETGSDSSSMDNMLELLLAGGMDIIRAMRLLVPPAWQNNPDMDPELRAFFDFNSMHMEPWDGPAGIVMSDGRFAACNLDRNGLRPARYVITKDKLITCASEVGIWDYQPDEVVEKGRVGPGELMVIDTRSGRILHSAETDDDLKSRHPYKEWMEKNVRRLVPFEDLPDEEVGSRELDDDTLASYQKQFNYSAEELDSVIRVLGENGQEAVGSMGDDTPFAVLSSQPRIIYDYFRQQFAQVTNPPIDPLREAHVMSLATSIGREMNVFCEAEGQAHRLSFKSPILLYSDFKQLTTMKEEHYRADTLDITFDVTKTTLEATVKELCDKAEKMVRSGTVLLVLSDRNIAKDRLPVPAPMAVGAIQTRLVDQSLRCDANIIVETASARDPHHFAVLLGFGATAIYPYLAYETLGRLVDTHAIAKDYRTVMLNYRNGINKGLYKIMSKMGISTIASYRCSKLFEAVGLHDDVVGLCFQGAVSRIGGASFEDFQQDLLNLSKRAWLARKPISQGGLLKYVHGGEYHAYNPDVVRTLQQAVQSGEYSDYQEYAKLVNERPATTLRDLLAITPGENAVNIADVEPASELFKRFDTAAMSIGALSPEAHEALAEAMNSIGGNSNSGEGGEDPARYGTNKVSRIKQVASGRFGVTPAYLVNADVIQIKVAQGAKPGEGGQLPGDKVTPYIAKLRYSVPGVTLISPPPHHDIYSIEDLAQLIFDLKQVNPKAMISVKLVSEPGVGTIATGVAKAYADLITIAGYDGGTGASPLSSVKYAGCPWELGLVETQQALVANGLRHKIRLQVDGGLKTGVDIIKAAILGAESFGFGTGPMVALGCKYLRICHLNNCATGVATQDDKLRKNHYHGLPFKVTNYFEFIARETRELMAQLGVTRLVDLIGRTDLLKELDGFTAKQQKLALSKLLETAEPHPGKALYCTENNPPFDNGLLNAQLLQQAKPFVDERQSKTFWFDIRNTDRSVGASLSGYIAQTHGDQGLAADPIKAYFNGTAGQSFGVWNAGGVELYLTGDANDYVGKGMAGGLIAIRPPVGSAFRSHEASIIGNTCLYGATGGRLYAAGRAGERFGVRNSGAITVVEGIGDNGCEYMTGGIVCILGKTGVNFGAGMTGGFAYVLDESGDFRKRVNPELVEVLSVDALAIHEEHLRGLITEHVQHTGSQRGEEILANWSTFATKFALVKPKSSDVKALLGHRSRSAAELRVQAQ,6.38 ± 0.89,6.254 ± 0.044,4.18 ± 0.16,4.437 ± 0.013,4.06 ± 0.1,2.72 ± 0.22,4.89 ± 0.053,8.46 ± 0.56,3.92 ± 0.12,6.4 ± 0.52,8.43 ± 0.51,5.31 ± 0.17
MRVLLAPMEGVLDSLVRELLTEVNDYDLCITEFVRVVDQLLPVKVFHRICPELQNASRTPSGTLVRVQLLGQFPQWLAENAARAVELGSWGVDLNCGCPSKTVNGSGGGATLLKDPELIYQGAKAMREAVPAHLPVSVKVRLGWDSGEKKFEIADAVQQAGATELVVHGRTKEQGYRAEHIDWQAIGDIRQRLNIPVIANGEIWDWQSAQQCMAISGCDAVMIGRGALNIPNLSRVVKYNEPRMPWPEVVALLQKYTRLEKQGDTGLYHVARIKQWLSYLRKEYDEATELFQHVRVLNNSPDIARAIQAIDIEKL,5.15 ± 0.54,4.72 ± 0.35,4.92 ± 0.12,–,4.76 ± 0.15,2.89 ± 0.34,–,10.6,5.2 ± 0.37,8.91 ± 1.2,11.7 ± 1.4,5.81 ± 0.9
MTKYALVGDVGGTNARLALCDIASGEISQAKTYSGLDYPSLEAVIRVYLEEHKVEVKDGCIAIACPITGDWVAMTNHTWAFSIAEMKKNLGFSHLEIINDFTAVSMAIPMLKKEHLIQFGGAEPVEGKPIAVYGAGTGLGVAHLVHVDKRWVSLPGEGGHVDFAPNSEEEAIILEILRAEIGHVSAERVLSGPGLVNLYRAIVKADNRLPENLKPKDITERALADSCTDCRRALSLFCVIMGRFGGNLALNLGTFGGVFIAGGIVPRFLEFFKASGFRAAFEDKGRFKEYVHDIPVYLIVHDNPGLLGSGAHLRQTLGHIL [P0A6V8],5.167 ± 0.05,5.45 ± 0.21,4.8 ± 0.84,5.7 ± 0.3,5.16 ± 0.58,2.78 ± 0.35,6.3 ± 0.76,–,5 ± 1.4,9.21 ± 0.77,15.2 ± 1.1,–
MKILVYGINYSPELTGIGKYTGEMVEWLAAQGHEVRVITAPPYYPQWQVGENYSAWRYKREEGAATVWRCPLYVPKQPSTLKRLLHLGSFAVSSFFPLMAQRRWKPDRIIGVVPTLFCAPGMRLLAKLSGARTVLHIQDYEVDAMLGLGLAGKGKGGKVAQLATAFERSGLHNVDNVSTISRSMMNKAIEKGVAAENVIFFPNWSEIARFQHVADADVDALRNQLDLPDNKKIILYSGNIGEKQGLENVIEAADRLRDEPLIFAIVGQGGGKARLEKMAQQRGLRNMQFFPLQSYDALPALLKMGDCHLVVQKRGAADAVLPSKLTNILAVGGNAVITAEAYTELGQLCETFPGIAVCVEPESVEALVAGIRQALLLPKHNTVAREYAERTLDKENVLRQFINDIRG,4.84,–,–,–,5.37,–,–,–,–,–,–,–
MEIFFTILIMTLVVSLSGVVTRVMPFQIPLPLMQIAIGALLAWPTFGLHVEFDPELFLVLFIPPLLFADGWKTPTREFLEHGREIFGLALALVVVTVVGIGFLIYWVVPGIPLIPAFALAAVLSPTDAVALSGIVGEGRIPKKIMGILQGEALMNDASGLVSLKFAVAVAMGTMIFTVGGATVEFMKVAIGGILAGFVVSWLYGRSLRFLSRWGGDEPATQIVLLFLLPFASYLIAEHIGVSGILAAVAAGMTITRSGVMRRAPLAMRLRANSTWAMLEFVFNGMVFLLLGLQLPGILETSLMAAEIDPNVEIWMLFTNIILIYAALMLVRFGWLWTMKKFSNRFLKKKPMEFGSWTTREILIASFAGVRGAITLAGVLSIPLLLPDGNVFPARYELVFLAAGVILFSLFVGVVMLPILLQHIEVADHSQQLKEERIARAATAEVAIVAIQKMEERLAADTEENIDNQLLTEVSSRVIGNLRRRADGRNDVESSVQEENLERRFRLAALRSERAELYHLRATREISNETLQKLLHDLDLLEALLIEENQ,6.08 ± 0.45,–,6.29 ± 0.48,5.55 ± 0.11,5.17 ± 1.3,–,5.6 ± 0.69,11.9 ± 0.93,5.74 ± 0.28,10.9 ± 0.26,11.4 ± 0.66,6.31 ± 0.26
MIALIQRVTRASVTVEGEVTGEIGAGLLVLLGVEKDDDEQKANRLCERVLGYRIFSDAEGKMNLNVQQAGGSVLVVSQFTLAADTERGMRPSFSKGASPDRAEALYDYFVERCRQQEMNTQTGRFAADMQVSLVNDGPVTFWLQV [P0A6M4],4.67 ± 0.29,3.81 ± 0.19,3.859 ± 0.026,4.26 ± 0.52,4.06 ± 0.17,–,5.48 ± 0.15,10 ± 0.87,3.84 ± 0.29,6.66 ± 0.43,11 ± 0.22,5.52 ± 0.24
